This is an account of results in patent US20170224620A1 (Pfizer, published 2017).

Bridges are numbered along the chain shown (N, C = ends). [ ]: non-standard residue; d: D form. hCys = N[C@@H](CCS)C(=O)O; Pra = C#CC[C@H](N)C(=O)O

B1: P2-20 (truncation, Table 12) (peptide)
peptide: Ac-ACTWEVWGRECGG[Pra]G-NH2
modifications: disulfide 2-11
SMILES: C#CC[C@H](NC(=O)CNC(=O)CNC(=O)[C@@H]1CSSC[C@H](NC(=O)[C@H](C)NC(C)=O)C(=O)N[C@@H]([C@@H](C)O)C(=O)N[C@@H](Cc2c[nH]c3ccccc23)C(=O)N[C@@H](CCC(=O)O)C(=O)N[C@@H](C(C)C)C(=O)N[C@@H](Cc2c[nH]c3ccccc23)C(=O)NCC(=O)N[C@@H](CCCNC(=N)N)C(=O)N[C@@H](CCC(=O)O)C(=O)N1)C(=O)NCC(N)=O
B2: P2-50 (peptide)
peptide: H-DPCTWEVWGRE[hCys]LQGG[Pra]G-NH2
modifications: disulfide 3-12
SMILES: C#CC[C@H](NC(=O)CNC(=O)CNC(=O)[C@H](CCC(N)=O)NC(=O)[C@H](CC(C)C)NC(=O)[C@@H]1CCSSC[C@H](NC(=O)[C@@H]2CCCN2C(=O)[C@@H](N)CC(=O)O)C(=O)N[C@@H]([C@@H](C)O)C(=O)N[C@@H](Cc2c[nH]c3ccccc23)C(=O)N[C@@H](CCC(=O)O)C(=O)N[C@@H](C(C)C)C(=O)N[C@@H](Cc2c[nH]c3ccccc23)C(=O)NCC(=O)N[C@@H](CCCNC(=N)N)C(=O)N[C@@H](CCC(=O)O)C(=O)N1)C(=O)NCC(N)=O
B3: P2-26 (peptide)
peptide: H-DPCSWEVWGRECLQGG[Pra]G-NH2
modifications: disulfide 3-12
SMILES: C#CC[C@H](NC(=O)CNC(=O)CNC(=O)[C@H](CCC(N)=O)NC(=O)[C@H](CC(C)C)NC(=O)[C@@H]1CSSC[C@H](NC(=O)[C@@H]2CCCN2C(=O)[C@@H](N)CC(=O)O)C(=O)N[C@@H](CO)C(=O)N[C@@H](Cc2c[nH]c3ccccc23)C(=O)N[C@@H](CCC(=O)O)C(=O)N[C@@H](C(C)C)C(=O)N[C@@H](Cc2c[nH]c3ccccc23)C(=O)NCC(=O)N[C@@H](CCCNC(=N)N)C(=O)N[C@@H](CCC(=O)O)C(=O)N1)C(=O)NCC(N)=O
B4: P2-36 (peptide)
peptide: H-DPCTWEIWGRECLQGG[Pra]G-NH2
modifications: disulfide 3-12
SMILES: C#CC[C@H](NC(=O)CNC(=O)CNC(=O)[C@H](CCC(N)=O)NC(=O)[C@H](CC(C)C)NC(=O)[C@@H]1CSSC[C@H](NC(=O)[C@@H]2CCCN2C(=O)[C@@H](N)CC(=O)O)C(=O)N[C@@H]([C@@H](C)O)C(=O)N[C@@H](Cc2c[nH]c3ccccc23)C(=O)N[C@@H](CCC(=O)O)C(=O)N[C@@H]([C@@H](C)CC)C(=O)N[C@@H](Cc2c[nH]c3ccccc23)C(=O)NCC(=O)N[C@@H](CCCNC(=N)N)C(=O)N[C@@H](CCC(=O)O)C(=O)N1)C(=O)NCC(N)=O
B5: P2-25 (peptide)
peptide: H-DPCVWEVWGRECLQGG[Pra]G-NH2
modifications: disulfide 3-12
SMILES: C#CC[C@H](NC(=O)CNC(=O)CNC(=O)[C@H](CCC(N)=O)NC(=O)[C@H](CC(C)C)NC(=O)[C@@H]1CSSC[C@H](NC(=O)[C@@H]2CCCN2C(=O)[C@@H](N)CC(=O)O)C(=O)N[C@@H](C(C)C)C(=O)N[C@@H](Cc2c[nH]c3ccccc23)C(=O)N[C@@H](CCC(=O)O)C(=O)N[C@@H](C(C)C)C(=O)N[C@@H](Cc2c[nH]c3ccccc23)C(=O)NCC(=O)N[C@@H](CCCNC(=N)N)C(=O)N[C@@H](CCC(=O)O)C(=O)N1)C(=O)NCC(N)=O
B6: P2-33 (peptide)
peptide: H-DPCTWGVWGRECLQGG[Pra]G-NH2
modifications: disulfide 3-12
SMILES: C#CC[C@H](NC(=O)CNC(=O)CNC(=O)[C@H](CCC(N)=O)NC(=O)[C@H](CC(C)C)NC(=O)[C@@H]1CSSC[C@H](NC(=O)[C@@H]2CCCN2C(=O)[C@@H](N)CC(=O)O)C(=O)N[C@@H]([C@@H](C)O)C(=O)N[C@@H](Cc2c[nH]c3ccccc23)C(=O)NCC(=O)N[C@@H](C(C)C)C(=O)N[C@@H](Cc2c[nH]c3ccccc23)C(=O)NCC(=O)N[C@@H](CCCNC(=N)N)C(=O)N[C@@H](CCC(=O)O)C(=O)N1)C(=O)NCC(N)=O
B7: P2-32 (peptide)
peptide: H-DPCTWRVWGRECLQGG[Pra]G-NH2
modifications: disulfide 3-12
SMILES: C#CC[C@H](NC(=O)CNC(=O)CNC(=O)[C@H](CCC(N)=O)NC(=O)[C@H](CC(C)C)NC(=O)[C@@H]1CSSC[C@H](NC(=O)[C@@H]2CCCN2C(=O)[C@@H](N)CC(=O)O)C(=O)N[C@@H]([C@@H](C)O)C(=O)N[C@@H](Cc2c[nH]c3ccccc23)C(=O)N[C@@H](CCCNC(=N)N)C(=O)N[C@@H](C(C)C)C(=O)N[C@@H](Cc2c[nH]c3ccccc23)C(=O)NCC(=O)N[C@@H](CCCNC(=N)N)C(=O)N[C@@H](CCC(=O)O)C(=O)N1)C(=O)NCC(N)=O
B8: P2-16 (peptide)
peptide: H-CTWEVWGRECLQGG[Pra]G-NH2
modifications: disulfide 1-10
SMILES: C#CC[C@H](NC(=O)CNC(=O)CNC(=O)[C@H](CCC(N)=O)NC(=O)[C@H](CC(C)C)NC(=O)[C@@H]1CSSC[C@H](N)C(=O)N[C@@H]([C@@H](C)O)C(=O)N[C@@H](Cc2c[nH]c3ccccc23)C(=O)N[C@@H](CCC(=O)O)C(=O)N[C@@H](C(C)C)C(=O)N[C@@H](Cc2c[nH]c3ccccc23)C(=O)NCC(=O)N[C@@H](CCCNC(=N)N)C(=O)N[C@@H](CCC(=O)O)C(=O)N1)C(=O)NCC(N)=O
B9: P2-21 (peptide)
peptide: H-[Pra]ACTWEVWGREC-NH2
modifications: disulfide 3-12
SMILES: C#CC[C@H](N)C(=O)N[C@@H](C)C(=O)N[C@H]1CSSC[C@@H](C(N)=O)NC(=O)[C@H](CCC(=O)O)NC(=O)[C@H](CCCNC(=N)N)NC(=O)CNC(=O)[C@H](Cc2c[nH]c3ccccc23)NC(=O)[C@H](C(C)C)NC(=O)[C@H](CCC(=O)O)NC(=O)[C@H](Cc2c[nH]c3ccccc23)NC(=O)[C@H]([C@@H](C)O)NC1=O
B10: P2-17 (peptide)
peptide: H-CTWEVWGRECGG[Pra]G-NH2
modifications: disulfide 1-10
SMILES: C#CC[C@H](NC(=O)CNC(=O)CNC(=O)[C@@H]1CSSC[C@H](N)C(=O)N[C@@H]([C@@H](C)O)C(=O)N[C@@H](Cc2c[nH]c3ccccc23)C(=O)N[C@@H](CCC(=O)O)C(=O)N[C@@H](C(C)C)C(=O)N[C@@H](Cc2c[nH]c3ccccc23)C(=O)NCC(=O)N[C@@H](CCCNC(=N)N)C(=O)N[C@@H](CCC(=O)O)C(=O)N1)C(=O)NCC(N)=O
B11: P2-23 (peptide)
peptide: H-[Pra]CTWEVWGREC-NH2
modifications: disulfide 2-11
SMILES: C#CC[C@H](N)C(=O)N[C@H]1CSSC[C@@H](C(N)=O)NC(=O)[C@H](CCC(=O)O)NC(=O)[C@H](CCCNC(=N)N)NC(=O)CNC(=O)[C@H](Cc2c[nH]c3ccccc23)NC(=O)[C@H](C(C)C)NC(=O)[C@H](CCC(=O)O)NC(=O)[C@H](Cc2c[nH]c3ccccc23)NC(=O)[C@H]([C@@H](C)O)NC1=O
B12: P2-19 (peptide)
peptide: H-ACTWEVWGRECGG[Pra]G-NH2
modifications: disulfide 2-11
SMILES: C#CC[C@H](NC(=O)CNC(=O)CNC(=O)[C@@H]1CSSC[C@H](NC(=O)[C@H](C)N)C(=O)N[C@@H]([C@@H](C)O)C(=O)N[C@@H](Cc2c[nH]c3ccccc23)C(=O)N[C@@H](CCC(=O)O)C(=O)N[C@@H](C(C)C)C(=O)N[C@@H](Cc2c[nH]c3ccccc23)C(=O)NCC(=O)N[C@@H](CCCNC(=N)N)C(=O)N[C@@H](CCC(=O)O)C(=O)N1)C(=O)NCC(N)=O
B13: P2-15 (peptide)
peptide: H-DPCTWEVWGRECGG[Pra]G-NH2
modifications: disulfide 3-12
SMILES: C#CC[C@H](NC(=O)CNC(=O)CNC(=O)[C@@H]1CSSC[C@H](NC(=O)[C@@H]2CCCN2C(=O)[C@@H](N)CC(=O)O)C(=O)N[C@@H]([C@@H](C)O)C(=O)N[C@@H](Cc2c[nH]c3ccccc23)C(=O)N[C@@H](CCC(=O)O)C(=O)N[C@@H](C(C)C)C(=O)N[C@@H](Cc2c[nH]c3ccccc23)C(=O)NCC(=O)N[C@@H](CCCNC(=N)N)C(=O)N[C@@H](CCC(=O)O)C(=O)N1)C(=O)NCC(N)=O
B14: P2-18 (peptide)
peptide: H-DACTWEVWGRECGG[Pra]G-NH2
modifications: disulfide 3-12
SMILES: C#CC[C@H](NC(=O)CNC(=O)CNC(=O)[C@@H]1CSSC[C@H](NC(=O)[C@H](C)NC(=O)[C@@H](N)CC(=O)O)C(=O)N[C@@H]([C@@H](C)O)C(=O)N[C@@H](Cc2c[nH]c3ccccc23)C(=O)N[C@@H](CCC(=O)O)C(=O)N[C@@H](C(C)C)C(=O)N[C@@H](Cc2c[nH]c3ccccc23)C(=O)NCC(=O)N[C@@H](CCCNC(=N)N)C(=O)N[C@@H](CCC(=O)O)C(=O)N1)C(=O)NCC(N)=O

For this assay, the target named is T1, Fc tagged recombinant human EGFR (rhEGFR-Fc, R&D systems, Cat#344-ER-050) (human, UniProt P00533 25-645).
T1 construct: Bought protein; also called apo-EGFR; not shown: Fc tag
Nature of the assay: SPR. The method, then:
Surface plasmon resonance (SPR) binding studies were carried out on a Biacore T200 instrument (GE Healthcare). […] The contact time and resulting amount of rhEGFR-Fc capture was varied based on the nature of the analyte, namely whether it was a peptide or nanoparticle.
Peptide binding assays were carried out in 10 mM PBS buffer supplemented with 0.05% surfactant P20 and 5% DMSO by volume, at 25° C. Peptides were injected over the rhEGFR-Fc surface for 60 s, followed by dissociation (buffer injection) for 60 s and regeneration with a 10 s pulse of 3M MgCl₂. A fresh rhEGFR-Fc surface was generated for each concentration of each peptide tested. Peptide binding data was analyzed by fitting to a 1:1 Langmuir kinetic model to obtain the on-rate (kₐ), off-rate (kd) and/or equilibrium binding constant (KD) of the interaction.
Take B1: the “KD/P2 KD” value was determined as 3 ratio. For the molecule B2, the “Result (affinity relative to KD of P2)” value was 4.56 ratio. For H-DPCTFEVWGRECLQGG[Pra]G-NH2 (disulfide 3-12) [P2-29], the “KD/P2 KD” value is 9.24 ratio.

For B3, the “KD/P2 KD” value stood at 1.68 ratio. On to B4, for which the “KD/P2 KD” value was found to be 3.48 ratio. The same measure, in the same setting: for B5 the value was 1.1 ratio. As for B6, the “KD/P2 KD” value is 42.7 ratio.

For the molecule B7, the “KD/P2 KD” value is 1.21 ratio.

Consider B8, for which the “KD/P2 KD” value came out at 2 ratio. Same read-out and setting: the value for B9 was 6.7 ratio; that for B10 was 0.4 ratio; that for B11 was 4.5 ratio. With B12, the “KD/P2 KD” value was determined as 2.4 ratio.

Take B13: the “KD/P2 KD” value was determined as 0.9 ratio. As for B14, the “KD/P2 KD” value worked out at 1.6 ratio.
